Laboratory results taken from publication PMC10397247.
One block for each binder: values may come before it.

Tests used:
Assay in all cases: two-hybrid library CCmax;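 also: natural log of median RNA to DNA barcode read ratio; higher means stronger binding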
4H883-AA = target: T1, 4H883-AA; conditions: mean of both orientations
T1 chain: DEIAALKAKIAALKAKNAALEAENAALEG

4H953-AA = target: T2, 4H953-AA; conditions: mean of both orientations
T2 chain: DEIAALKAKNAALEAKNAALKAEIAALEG

4H568-AA = target: T3, 4H568-AA
T3 chain: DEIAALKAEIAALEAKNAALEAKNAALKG

4H687-AA = target: T4, 4H687-AA; conditions: mean of both orientations
T4 chain: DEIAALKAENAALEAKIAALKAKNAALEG

4H797-AA = target: T5, 4H797-AA; conditions: mean of both orientations
T5 chain: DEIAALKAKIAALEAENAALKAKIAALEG

4H918-AA = target: T6, 4H918-AA; conditions: mean of both orientations
T6 chain: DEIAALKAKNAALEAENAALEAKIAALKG

4H717-AA = target: T7, 4H717-AA; conditions: mean of both orientations
T7 chain: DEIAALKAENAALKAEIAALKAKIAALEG

4H967-AA = target: T8, 4H967-AA; conditions: mean of both orientations
T8 chain: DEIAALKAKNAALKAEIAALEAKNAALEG

4H1864-AA = target: T9, 4H1864-AA; conditions: mean of both orientations
T9 chain: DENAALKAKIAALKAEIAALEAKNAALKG

4H745-AA = target: T10, 4H745-AA; conditions: mean of both orientations
T10 chain: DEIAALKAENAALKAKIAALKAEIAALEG

4H2274-AA = target: T11, 4H2274-AA; conditions: mean of both orientations
T11 chain: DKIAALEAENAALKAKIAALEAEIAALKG

4H2438-AA = target: T12, 4H2438-AA; conditions: mean of both orientations
T12 chain: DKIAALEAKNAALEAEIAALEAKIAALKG

4H3753-AA = target: T13, 4H3753-AA; conditions: mean of both orientations
T13 chain: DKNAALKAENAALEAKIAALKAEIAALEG

4H2725-AA = target: T14, 4H2725-AA
T14 chain: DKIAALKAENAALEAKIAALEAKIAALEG

4H3590-AA = target: T15, 4H3590-AA; conditions: mean of both orientations
T15 chain: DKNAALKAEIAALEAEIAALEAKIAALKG

4H3165-AA = target: T16, 4H3165-AA; conditions: mean of both orientations
T16 chain: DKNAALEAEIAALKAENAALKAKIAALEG

4H570-AA = target: T17, 4H570-AA; conditions: mean of both orientations
T17 chain: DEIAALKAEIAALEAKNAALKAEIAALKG

4H850-AA = target: T18, 4H850-AA; conditions: mean of both orientations
T18 chain: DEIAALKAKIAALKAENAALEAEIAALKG

4H629-AA = target: T19, 4H629-AA; conditions: mean of both orientations
T19 chain: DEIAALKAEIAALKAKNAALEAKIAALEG

4H485-AA = target: T20, 4H485-AA; conditions: mean of both orientations
T20 chain: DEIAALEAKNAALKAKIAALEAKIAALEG

4H310-AA = target: T21, 4H310-AA; conditions: mean of both orientations
T21 chain: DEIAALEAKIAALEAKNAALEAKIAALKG

4H536-AA = target: T22, 4H536-AA; conditions: mean of both orientations
T22 chain: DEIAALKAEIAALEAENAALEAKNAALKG

4H3130-AA = target: T23, 4H3130-AA; conditions: mean of both orientations
T23 chain: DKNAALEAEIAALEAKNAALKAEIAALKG

4H891-AA = target: T24, 4H891-AA; conditions: mean of both orientations
T24 chain: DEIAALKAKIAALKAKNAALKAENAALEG

4H2109-AA = target: T25, 4H2109-AA; conditions: mean of both orientations
T25 chain: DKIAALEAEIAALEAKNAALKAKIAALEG

4H3865-AA = target: T26, 4H3865-AA; conditions: mean of both orientations
T26 chain: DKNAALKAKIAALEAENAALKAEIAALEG

4H2330-AA = target: T27, 4H2330-AA
T27 chain: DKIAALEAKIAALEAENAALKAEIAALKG

4H2649-AA = target: T28, 4H2649-AA; conditions: mean of both orientations
T28 chain: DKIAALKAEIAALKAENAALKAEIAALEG

4H909-AA = target: T29, 4H909-AA; conditions: mean of both orientations
T29 chain: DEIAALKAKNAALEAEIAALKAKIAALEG

4H1842-AA = target: T30, 4H1842-AA
T30 chain: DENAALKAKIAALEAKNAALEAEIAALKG

4H2253-AA = target: T31, 4H2253-AA; conditions: mean of both orientations
T31 chain: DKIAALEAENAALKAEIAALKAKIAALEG

4H2162-AA = target: T32, 4H2162-AA; conditions: mean of both orientations
T32 chain: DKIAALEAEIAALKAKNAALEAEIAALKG

4H3016-AA = target: T33, 4H3016-AA; conditions: mean of both orientations
T33 chain: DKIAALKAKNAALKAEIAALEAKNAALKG

4H930-AA = target: T34, 4H930-AA; conditions: mean of both orientations
T34 chain: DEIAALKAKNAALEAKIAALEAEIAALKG

4H94-AA = target: T35, 4H94-AA; conditions: mean of both orientations
T35 chain: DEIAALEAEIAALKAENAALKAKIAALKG

4H2698-AA = target: T36, 4H2698-AA; conditions: mean of both orientations
T36 chain: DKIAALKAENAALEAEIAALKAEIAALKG

4H3395-AA = target: T37, 4H3395-AA; conditions: mean of both orientations
T37 chain: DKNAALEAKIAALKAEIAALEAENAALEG

4H710-AA = target: T38, 4H710-AA; conditions: mean of both orientations
T38 chain: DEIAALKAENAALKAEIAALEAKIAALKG

4H3009-AA = target: T39, 4H3009-AA; conditions: mean of both orientations
T39 chain: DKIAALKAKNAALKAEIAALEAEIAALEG

4H2389-AA = target: T40, 4H2389-AA; conditions: mean of both orientations
T40 chain: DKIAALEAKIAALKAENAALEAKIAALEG

4H3697-AA = target: T41, 4H3697-AA; conditions: mean of both orientations
T41 chain: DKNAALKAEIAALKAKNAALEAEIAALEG

4H2473-AA = target: T42, 4H2473-AA; conditions: mean of both orientations
T42 chain: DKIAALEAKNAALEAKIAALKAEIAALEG

4H458-AA = target: T43, 4H458-AA; conditions: mean of both orientations
T43 chain: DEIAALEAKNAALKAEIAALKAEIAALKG

4H3381-AA = target: T44, 4H3381-AA; conditions: mean of both orientations
T44 chain: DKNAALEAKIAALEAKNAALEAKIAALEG

4H3410-AA = target: T45, 4H3410-AA; conditions: mean of both orientations
T45 chain: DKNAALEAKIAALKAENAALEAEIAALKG

4H1877-AA = target: T46, 4H1877-AA; conditions: mean of both orientations
T46 chain: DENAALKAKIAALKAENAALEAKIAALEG

4H2865-AA = target: T47, 4H2865-AA; conditions: mean of both orientations
T47 chain: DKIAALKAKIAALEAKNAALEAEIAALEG

4H3120-AA = target: T48, 4H3120-AA; conditions: mean of both orientations
T48 chain: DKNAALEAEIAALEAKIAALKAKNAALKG

interaction score (4H883-AA): 2.12 | interaction score (4H953-AA): -1.78 | interaction score (4H568-AA): -0.405 | interaction score (4H687-AA): -1.51 | interaction score (4H797-AA): -1.39 | interaction score (4H918-AA): -1.24 | interaction score (4H717-AA): -1.75 | interaction score (4H967-AA): -0.838
Binder: DEIAALKAEIAALEAKNAALEAKNAALKG [4H568-AA]

interaction score (4H1864-AA): -1.82 | interaction score (4H745-AA): -1.86 | interaction score (4H2274-AA): -1.6 | interaction score (4H2438-AA): -1.14 | interaction score (4H3753-AA): -1.52 | interaction score (4H2725-AA): -1.86 | interaction score (4H3590-AA): -0.391 | interaction score (4H3165-AA): -1.43 | interaction score (4H570-AA): 0.585 | interaction score (4H850-AA): 0.256 | interaction score (4H629-AA): -1.59 | interaction score (4H485-AA): -1.94 | interaction score (4H310-AA): 0.761 | interaction score (4H536-AA): -1.7 | interaction score (4H3130-AA): 0.65 | interaction score (4H891-AA): -1.42 | interaction score (4H2109-AA): -1.43 | interaction score (4H3865-AA): -0.938 | interaction score (4H2330-AA): -1.35 | interaction score (4H2649-AA): -1.27 | interaction score (4H909-AA): -1.17 | interaction score (4H1842-AA): 1.88 | interaction score (4H797-AA): -1.34 | interaction score (4H2253-AA): -1.72 | interaction score (4H2162-AA): -1.21 | interaction score (4H3016-AA): -1.43 | interaction score (4H930-AA): -1.21 | interaction score (4H94-AA): -1.17 | interaction score (4H2698-AA): -0.986 | interaction score (4H3395-AA): -2.04 | interaction score (4H710-AA): -1.63 | interaction score (4H3009-AA): -1.78 | interaction score (4H2389-AA): -1.52 | interaction score (4H3697-AA): -1.01 | interaction score (4H2473-AA): -1.44 | interaction score (4H458-AA): -1.14 | interaction score (4H3381-AA): -1.2 | interaction score (4H3410-AA): -0.8 | interaction score (4H1877-AA): -1.15 | interaction score (4H2865-AA): -0.0645 | interaction score (4H3120-AA): -1.44
Binder: DENAALKAKIAALEAKNAALEAEIAALKG [4H1842-AA]
